Six molecules from paper PMC8633003 can be followed below.

Series [1] has as its target Aca1 protein of Pseudomonas aeruginosa phage JBD30, full-length (1-79), wild type (Pseudomonas aeruginosa phage JBD30). Nature of the series: SEC. In general terms: SEC sorts molecules by how far they enter the pores of the column.
The next series deals with T1, Aca2 R30A (Pectobacterium carotovorum temperate …, UniProt H9C180 1-116, R30A).
T1 sequence: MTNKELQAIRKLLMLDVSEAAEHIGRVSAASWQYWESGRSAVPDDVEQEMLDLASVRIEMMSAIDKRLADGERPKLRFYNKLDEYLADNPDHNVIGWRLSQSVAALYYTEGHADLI
Nature of the series: ITC. A general note: In ITC the heat of successive injections is recorded.

Another series addresses T2, Aca2 Y34A (Pectobacterium carotovorum temperate …, UniProt H9C180 1-116, Y34A).
T2 sequence: T1 sequence with A30R, Y34A
Nature of the series: ITC.

In a further series the target is T3, Aca2 R39A (Pectobacterium carotovorum temperate …, UniProt H9C180 1-116, R39A).
T3 sequence: T1 sequence with A30R, R39A
Briefly: ITC.

In the next series the target is T4, Aca1 (Pseudomonas aeruginosa phage JBD30, UniProt L7P845 1-79).
T4 sequence: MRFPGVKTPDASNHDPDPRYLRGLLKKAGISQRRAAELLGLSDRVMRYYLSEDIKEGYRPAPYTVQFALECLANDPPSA
Nature of the series: ITC.

Another series concerns the target T5, Aca1 V45A (Pseudomonas aeruginosa phage JBD30, UniProt L7P845 1-79, V45A).
T5 sequence: T4 sequence with V45A
Nature of the series: ITC.

In a further series the target is T6, Aca1 S42G (Pseudomonas aeruginosa phage JBD30, UniProt L7P845 1-79, S42G).
T6 sequence: T4 sequence with S42G
Briefly: ITC.

A further series addresses T7, Aca1 Y48A (Pseudomonas aeruginosa phage JBD30, UniProt L7P845 1-79, Y48A).
T7 sequence: T4 sequence with Y48A
Nature of the series: ITC.

In another series the target is T8, Aca1 R47A (Pseudomonas aeruginosa phage JBD30, UniProt L7P845 1-79, R47A).
T8 sequence: T4 sequence with R47A
Nature of the series: ITC.

A further series concerns the target T9, Aca1 R44A (Pseudomonas aeruginosa phage JBD30, UniProt L7P845 1-79, R44A).
T9 sequence: T4 sequence with R44A
Nature of the series: ITC.

The target in another series is T10, Aca1 R22A/Q32A (Pseudomonas aeruginosa phage JBD30, UniProt L7P845 1-79, R22A;Q32A).
T10 sequence: T4 sequence with R22A, Q32A
Briefly: ITC.

The target in another series is T11, Aca1 R59A (Pseudomonas aeruginosa phage JBD30, UniProt L7P845 1-79, R59A).
T11 sequence: T4 sequence with R59A
Nature of the series: ITC.

Substitutions are numbered along the chain they refer to.

The stoichiometry N is a count of units in the complex or per binding partner. In general, Kd refers to the equilibrium constant for the complex coming apart. A low value points to higher affinity.

On to “Aca1 protein of Pseudomonas aeruginosa phage JBD30, full-length (1-79), wild type (natural protein)”, for which the stoichiometry N in series [1] amounted to 2.

B1: 26-bp ZF40-IR1 blunt (dsDNA)
DNA 1: TGCTTGTTCGCGATTGCGAACATATA
DNA 2: TATATGTTCGCAATCGCGAACAAGCA
In the case of B1, the binding result with Aca2 R30A, with Aca2 Y34A and with Aca2 R39A was “no binding” each time.

B2: 23-bp IR2 (dsDNA)
DNA 1: AATTAGGCACAATGTGCCTAATC
DNA 2: GATTAGGCACATTGTGCCTAATT
Turning to B2, the dissociation constant Kd with Aca1 came out at 32.2 nM.

B3: 19-bp IR2 blunt (dsDNA)
DNA 1: TTAGGCACAATGTGCCTAA
DNA 2: TTAGGCACATTGTGCCTAA
In the case of B3, in the series with Aca1, binding was put at a Kd of 741 nM.

B4: 21-bp IR1 (dsDNA)
DNA 1: AAGCGGCACACTGTGCCTATT
DNA 2: AATAGGCACAGTGTGCCGCTT
With B4, binding with Aca1 was put at a Kd of 53.2 nM.

B5: 21-bp IR2 (dsDNA)
DNA 1: ATTAGGCACAATGTGCCTAAT
DNA 2: ATTAGGCACATTGTGCCTAAT
In the case of B5, the Kd with Aca1 V45A came out at 364 nM; with Aca1 S42G, 59.2 nM; in the series with Aca1 Y48A it was 2860 nM; with Aca1, 74.1 nM. Besides, the binding result with Aca1 R47A, in the series with Aca1 R44A, in the series with Aca1 R22A/Q32A and with Aca1 R59A was “no binding” in each case.
